Source: patent US20180371451A1 (BOARD OF TRUSTEES OF THE UNIVERSITY OF ILLINOIS, published 2018)

Legend:
Assay in all cases: specificity test of the expressed monobodies (method not named)
[1] = target: human Cyclin-Dependent Kinase 2 (human, UniProt P24941 1-298)
BSA = BSA (UniProt P02769 25-607)
CDC34 = target: T1, CDC34 (UniProt P49427 1-236, limits assumed)
T1 sequence (looked up): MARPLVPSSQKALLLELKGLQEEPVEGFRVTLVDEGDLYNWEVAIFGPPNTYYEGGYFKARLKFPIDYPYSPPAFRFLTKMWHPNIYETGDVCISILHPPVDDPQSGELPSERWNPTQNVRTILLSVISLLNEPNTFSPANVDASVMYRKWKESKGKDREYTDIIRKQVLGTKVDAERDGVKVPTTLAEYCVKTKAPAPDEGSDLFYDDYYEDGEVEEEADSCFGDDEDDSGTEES

Measured: binding result

Chain of BSA (P02769 25-607 limits assumed): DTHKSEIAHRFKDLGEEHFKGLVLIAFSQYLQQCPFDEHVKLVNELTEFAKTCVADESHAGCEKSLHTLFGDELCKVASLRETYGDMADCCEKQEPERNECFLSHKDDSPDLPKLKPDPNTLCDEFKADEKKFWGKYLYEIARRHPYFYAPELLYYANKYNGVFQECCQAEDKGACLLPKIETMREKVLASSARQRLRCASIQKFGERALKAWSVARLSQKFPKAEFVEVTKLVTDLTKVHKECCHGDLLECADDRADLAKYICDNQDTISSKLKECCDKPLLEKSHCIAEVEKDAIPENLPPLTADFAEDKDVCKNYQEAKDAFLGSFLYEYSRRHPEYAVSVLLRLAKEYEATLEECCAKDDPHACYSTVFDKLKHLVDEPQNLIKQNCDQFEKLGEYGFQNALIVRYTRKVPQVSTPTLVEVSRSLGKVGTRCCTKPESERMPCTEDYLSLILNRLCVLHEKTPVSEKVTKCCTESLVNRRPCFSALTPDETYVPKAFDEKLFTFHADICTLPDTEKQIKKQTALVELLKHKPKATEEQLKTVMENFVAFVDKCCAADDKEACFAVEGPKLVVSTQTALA

B1: anti-MAP2K5 FN3 monobody clone G4 (designed binder)
chain: MAVSDVPRKLEVVAATPTSLLISWDQDQVYYYRIRYGETGGNSPVQEFTVPGSKSTATISGLKPGVDYTITVYAVTGTSYAYIISINYRI
notes: FN3 (tenth type III domain of fibronectin) monobody from the PExSR selection; It was cloned into the pET14b-SUMO E. coli expression vector (SUMO fusion, purified on His60 resin) for characterisation; also called anti-MAP2K5 clone G4
no binding: all assays above

B2: anti-MAP2K5 FN3 monobody clone H1 (designed binder)
chain: MAVSDVPRKLEVVAATPTSLLISWDPYWFSGLYYRITYGETGGNSPVQEFTVPGSKSTATISGLKPGVDYTITVYAVTYYSWGYLVGEIISINYRI
notes: FN3 monobody from the PExSR selection; For the specificity test it was expressed as a SUMO fusion from pET14b-SUMO; also called Anti-MAP2K5 H1
no binding: all assays above
